Results reported in patent publication US20240018502A1.
Changes are numbered by the printed parent chain. Numbers in names are those of the source.

B1: MTSP-1 protease domain I41D/F97T/F99L/C122S/G151N/Q192T/D217A (enzyme)
chain: VVGGTDADEGEWPWQVSLHALGQGHDCGASLISPNWLVSAAHCYIDDRGFRYSDPTQWTAFLGLHDQSQRSAPGVQERRLKRIISHPFFNDTTLDYDIALLELEKPAEYSSMVRPISLPDASHVFPAGKAIWVTGWGHTQYGGTNALILQKGEIRVINQTTCENLLPQQITPRMMCVGFLSGGVDSCTGDSGGPLSSVEADGRIFQAGVVSWGAGCAQRNKPGVYTRLPLFRDWIKENTGV
B2: MTSP-1 protease domain I41G/F97L/F99L/C122S/G151N/Q192V/D217L (enzyme)
chain: B1 chain with D26G, T92L, T188V, A214L
B3: MTSP-1 protease domain I41D/F99L/C122S/G151N/Q175S/Q192T (enzyme)
chain: B1 chain with T92F, Q169S, A214D
B4: MTSP-1 protease domain Q38R/I41R/Y60gF/F99L/C122S/G151N/Q192G (enzyme)
chain: B1 chain with Q23R, D26R, Y52F, T92F, T188G, A214D
B5: MTSP-1 I41E/F99L/C122S/G151N/Q192T (enzyme)
chain: B1 chain with D26E, T92F, A214D
B6: MTSP-1 protease domain I41D/F99L/C122S/G151N/Q192T/D217A (enzyme)
chain: B1 chain with T92F
B7: MTSP-1 I41D/Y59F/D96E/F99L/C122S/G151N/Q192T (enzyme)
chain: B1 chain with Y44F, D91E, T92F, A214D
B8: MTSP-1 protease domain Q38R/I41R/Y60gL/F99L/C122S/G151N/Q192G (enzyme)
chain: B1 chain with Q23R, D26R, Y52L, T92F, T188G, A214D
B9: MTSP-1 protease domain Q38L/I41R/Y60gF/F99L/C122S/G151N/Q192A (enzyme)
chain: B1 chain with Q23L, D26R, Y52F, T92F, T188A, A214D
B10: MTSP-1 protease domain I41S/C122S/G151N/Q175R/Q192R (enzyme)
chain: B1 chain with D26S, T92F, L94F, Q169R, T188R, A214D
B11: MTSP-1 protease domain I41S/F99M/C122S/G151N/Q175L/Q192G (enzyme)
chain: B1 chain with D26S, T92F, L94M, Q169L, T188G, A214D
B12: MTSP-1 protease domain I41D/F99L/C122S/Q192T (enzyme)
chain: B1 chain with T92F, N145G, A214D
B13: MTSP-1 protease domain I41E/F97S/F99L/C122S/Q175L/Q192V/D217A (enzyme)
chain: B1 chain with D26E, T92S, N145G, Q169L, T188V
B14: MTSP-1 I41D/C122S/G151N/Q192T (enzyme)
chain: B1 chain with T92F, L94F, A214D
B15: MTSP-1 protease domain Q38R/I41G/Y60gG/F99M/C122S/G151N/Q192R (enzyme)
chain: B1 chain with Q23R, D26G, Y52G, T92F, L94M, T188R, A214D
B16: MTSP-1 protease domain I41D/F99L/C122S/G151N/Q192T (enzyme)
chain: B1 chain with T92F, A214D
B17: MTSP-1 protease domain Q38H/I41S/Y60gW/C122S/G151H/Q192A (enzyme)
chain: B1 chain with Q23H, D26S, Y52W, T92F, L94F, N145H, T188A, A214D
B18: MTSP-1 protease domain I41G/F99L/C122S/G151N/Q175R/Q192A (enzyme)
chain: B1 chain with D26G, T92F, Q169R, T188A, A214D
B19: MTSP-1 protease domain I41G/F97V/F99L/C122S/G151N/Q192T/D217V (enzyme)
chain: B1 chain with D26G, T92V, A214V
B20: MTSP-1 protease domain I41E/F99L/C122S/G151N/Q192S (enzyme)
chain: B1 chain with D26E, T92F, T188S, A214D
B21: MTSP-1 protease domain F97L/F99L/C122S/Q175K/Q192V/D217M (enzyme)
chain: B1 chain with D26I, T92L, N145G, Q169K, T188V, A214M
B22: MTSP-1 I41S/F99L/C122S/G151N/Q192V (enzyme)
chain: B1 chain with D26S, T92F, T188V, A214D
B23: MTSP-1 protease domain F97E/F99L/C122S/Q175H/Q192V/D217P (enzyme)
chain: B1 chain with D26I, T92E, N145G, Q169H, T188V, A214P
B24: MTSP-1 protease domain Q38S/I41S/Y60gW/F99L/C122S/G151D/Q192T (enzyme)
chain: B1 chain with Q23S, D26S, Y52W, T92F, N145D, A214D
B25: MTSP-1 protease domain Q38K/I41D/Y60gG/F99L/C122S/G151N (enzyme)
chain: B1 chain with Q23K, Y52G, T92F, T188Q, A214D
B26: MTSP-1 protease domain I41D/F97T/F99L/C122S/G151N/Q192T (enzyme)
chain: B1 chain with A214D
B27: MTSP-1 protease domain I41G/F97A/F99L/C122S/G151N/Q175M/Q192S (enzyme)
chain: B1 chain with D26G, T92A, Q169M, T188S, A214D
B28: MTSP-1 protease domain I41E/F99L/C122S/G151N/Q175G/Q192T (enzyme)
chain: B1 chain with D26E, T92F, Q169G, A214D
B29: MTSP-1 protease domain F97T/F99L/C122S/G151N/Q175S/Q192T/D217A (enzyme)
chain: B1 chain with D26I, Q169S
B30: MTSP-1 protease domain F97E/F99L/C122S/G151A/Q192V (enzyme)
chain: B1 chain with D26I, T92E, N145A, T188V, A214D
B31: MTSP-1 protease domain Q38R/I41R/F99L/C122S/G151N/Q192G (enzyme)
chain: B1 chain with Q23R, D26R, T92F, T188G, A214D
B32: MTSP-1 protease domain I41D/F97R/F99L/C122S/Q175L/Q192T/D217I (enzyme)
chain: B1 chain with T92R, N145G, Q169L, A214I
B33: MTSP-1 protease domain Q38K/I41S/Y60gW/F99L/C122S/G151N/Q192G (enzyme)
chain: B1 chain with Q23K, D26S, Y52W, T92F, T188G, A214D
B34: MTSP-1 protease domain I41D/F99L/C122S/Q175S/Q192T (enzyme)
chain: B1 chain with T92F, N145G, Q169S, A214D
B35: MTSP-1 protease domain I41E/F99L/C122S/G151N/Q175L/Q192A (enzyme)
chain: B1 chain with D26E, T92F, Q169L, T188A, A214D
B36: MTSP-1 protease domain I41S/C122S/G151N/Q175D/Q192R (enzyme)
chain: B1 chain with D26S, T92F, L94F, Q169D, T188R, A214D
B37: MTSP-1 protease domain Q38K/I41G/Y60gW/F99L/C122S/G151N/Q192A (enzyme)
chain: B1 chain with Q23K, D26G, Y52W, T92F, T188A, A214D
B38: MTSP-1 protease domain I41D/F97T/F99L/C122S/G151N/Q175S/D217A (enzyme)
chain: B1 chain with Q169S, T188Q
B39: MTSP-1 protease domain Q38F/I41S/Y60gA/C122S/G151N/Q192R (enzyme)
chain: B1 chain with Q23F, D26S, Y52A, T92F, L94F, T188R, A214D
B40: MTSP-1 protease domain I41S/F99L/C122S/G151H/Q175L/Q192V (enzyme)
chain: B1 chain with D26S, T92F, N145H, Q169L, T188V, A214D
B41: MTSP-1 I41D/Y59F/C122S/G151N/Q192T (enzyme)
chain: B1 chain with Y44F, T92F, L94F, A214D
B42: MTSP-1 protease domain I41D/F97T/F99L/C122S/G151N/Q175S/Q192T (enzyme)
chain: B1 chain with Q169S, A214D
B43: MTSP-1 protease domain I41E/F99L/C122S/G151N/Q192V (enzyme)
chain: B1 chain with D26E, T92F, T188V, A214D
B44: MTSP-1 protease domain I41S/F99M/C122S/G151N/Q175G/Q192R (enzyme)
chain: B1 chain with D26S, T92F, L94M, Q169G, T188R, A214D
B45: MTSP-1 protease domain Q38R/I41S/Y60gW/F99L/C122S/G151N/Q192E (enzyme)
chain: B1 chain with Q23R, D26S, Y52W, T92F, T188E, A214D
B46: MTSP-1 protease domain I41S/F99L/C122S/G151N/Q175P/Q192V (enzyme)
chain: B1 chain with D26S, T92F, Q169P, T188V, A214D
B47: MTSP-1 protease domain I41E/F99L/C122S/G151N/Q175R/Q192T (enzyme)
chain: B1 chain with D26E, T92F, Q169R, A214D
B48: MTSP-1 protease domain I41S/F99M/C122S/G151N/Q175E/Q192R (enzyme)
chain: B1 chain with D26S, T92F, L94M, Q169E, T188R, A214D
B49: MTSP-1 protease domain I41E/F99L/C122S/G151N/Q175R/Q192H (enzyme)
chain: B1 chain with D26E, T92F, Q169R, T188H, A214D
B50: MTSP-1 protease domain I41S/F99M/C122S/G151N/Q175P/Q192S (enzyme)
chain: B1 chain with D26S, T92F, L94M, Q169P, T188S, A214D
B51: MTSP-1 protease domain Q38K/I41R/Y60gG/F99L/C122S/G151N/Q192G (enzyme)
chain: B1 chain with Q23K, D26R, Y52G, T92F, T188G, A214D
B52: MTSP-1 protease domain I41E/C122S/G151N/Q175L/Q192A (enzyme)
chain: B1 chain with D26E, T92F, L94F, Q169L, T188A, A214D
B53: MTSP-1 protease domain I41S/F97Q/F99L/C122S/Q175W/Q192V/D217R (enzyme)
chain: B1 chain with D26S, T92Q, N145G, Q169W, T188V, A214R
B54: MTSP-1 protease domain I41G/F99L/C122S/G151N/Q192A (enzyme)
chain: B1 chain with D26G, T92F, T188A, A214D
B55: MTSP-1 protease domain Q38K/I41G/Y60gG/F99L/C122S/G151N/Q192H (enzyme)
chain: B1 chain with Q23K, D26G, Y52G, T92F, T188H, A214D
B56: MTSP-1 protease domain F97R/ins97aI/T98P/C122S/Q175M/Q192V/D217I (enzyme)
chain: VVGGTDADEGEWPWQVSLHALGQGHICGASLISPNWLVSAAHCYIDDRGFRYSDPTQWTAFLGLHDQSQRSAPGVQERRLKRIISHPFFNDRIPFDYDIALLELEKPAEYSSMVRPISLPDASHVFPAGKAIWVTGWGHTQYGGTGALILQKGEIRVINQTTCENLLPQMITPRMMCVGFLSGGVDSCVGDSGGPLSSVEADGRIFQAGVVSWGIGCAQRNKPGVYTRLPLFRDWIKENTGV

Target: plasma purified human complement protein C3 (human) (UniProt P01024)
Test: cell-based or functional assay

Chain of plasma purified human complement protein C3 (human) (P01024 23-667, chain 1 of 2): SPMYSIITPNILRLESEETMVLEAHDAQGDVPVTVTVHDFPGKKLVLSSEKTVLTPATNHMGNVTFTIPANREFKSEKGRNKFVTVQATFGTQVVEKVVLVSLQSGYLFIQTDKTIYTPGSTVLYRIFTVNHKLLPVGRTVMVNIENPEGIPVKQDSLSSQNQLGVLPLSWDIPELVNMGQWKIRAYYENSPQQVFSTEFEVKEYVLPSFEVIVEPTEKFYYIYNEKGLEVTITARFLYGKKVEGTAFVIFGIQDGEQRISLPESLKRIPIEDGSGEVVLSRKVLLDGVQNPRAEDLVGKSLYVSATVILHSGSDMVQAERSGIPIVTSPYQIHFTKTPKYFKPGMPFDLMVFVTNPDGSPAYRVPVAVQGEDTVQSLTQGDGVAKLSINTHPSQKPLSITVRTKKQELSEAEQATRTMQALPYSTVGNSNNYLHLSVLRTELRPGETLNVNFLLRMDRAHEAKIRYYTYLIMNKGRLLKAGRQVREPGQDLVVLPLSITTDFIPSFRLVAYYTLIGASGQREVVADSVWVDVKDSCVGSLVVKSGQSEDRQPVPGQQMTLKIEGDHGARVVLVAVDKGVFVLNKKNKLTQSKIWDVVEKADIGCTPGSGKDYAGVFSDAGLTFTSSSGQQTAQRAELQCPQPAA
Chain of plasma purified human complement protein C3 (human) (P01024 672-1663, chain 2 of 2): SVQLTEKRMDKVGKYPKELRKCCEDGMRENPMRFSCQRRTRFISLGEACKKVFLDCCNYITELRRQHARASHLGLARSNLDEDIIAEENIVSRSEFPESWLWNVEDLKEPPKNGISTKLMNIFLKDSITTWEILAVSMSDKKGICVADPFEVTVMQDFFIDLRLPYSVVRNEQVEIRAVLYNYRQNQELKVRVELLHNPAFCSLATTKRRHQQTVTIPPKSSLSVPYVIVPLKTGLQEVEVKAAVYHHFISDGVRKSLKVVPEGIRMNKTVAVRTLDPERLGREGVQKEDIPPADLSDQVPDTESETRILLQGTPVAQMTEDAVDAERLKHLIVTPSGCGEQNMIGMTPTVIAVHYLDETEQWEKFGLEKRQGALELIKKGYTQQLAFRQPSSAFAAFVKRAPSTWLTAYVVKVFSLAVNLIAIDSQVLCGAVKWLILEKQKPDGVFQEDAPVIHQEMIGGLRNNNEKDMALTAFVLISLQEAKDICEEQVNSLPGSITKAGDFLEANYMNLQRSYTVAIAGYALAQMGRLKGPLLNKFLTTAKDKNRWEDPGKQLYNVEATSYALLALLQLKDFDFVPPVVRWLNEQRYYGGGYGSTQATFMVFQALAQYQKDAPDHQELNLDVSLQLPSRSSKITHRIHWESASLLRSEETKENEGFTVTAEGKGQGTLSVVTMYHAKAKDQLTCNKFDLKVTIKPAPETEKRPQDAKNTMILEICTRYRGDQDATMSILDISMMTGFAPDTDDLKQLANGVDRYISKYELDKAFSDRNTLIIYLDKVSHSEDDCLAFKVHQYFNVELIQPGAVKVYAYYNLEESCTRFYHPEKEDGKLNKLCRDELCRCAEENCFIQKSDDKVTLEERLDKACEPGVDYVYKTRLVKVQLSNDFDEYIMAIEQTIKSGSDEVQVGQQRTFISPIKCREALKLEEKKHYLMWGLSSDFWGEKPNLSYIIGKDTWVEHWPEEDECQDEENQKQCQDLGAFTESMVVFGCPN

Binder	EC50 hC3 cleavage [nM]	EC50 of hC3 cleavage [nM]
B1	70.4	–
B2	112	–
B3	28.6	–
B4	197	–
B5	–	124
B6	45.1	–
B7	–	54.9
B8	388	–
B9	151	–
B10	134	–
B11	62	–
B12	59.4	–
B13	89.9	–
B14	–	85.2
B15	147	–
B16	47	–
B17	8.96	–
B18	74.5	–
B19	30.5	–

Binder	EC50 hC3 cleavage [nM]	EC50 of hC3 cleavage [nM]
B20	112	–
B21	463	–
B22	–	34.4
B23	7770	–
B24	15	–
B25	52.7	–
B26	84.3	–
B27	73.1	–
B28	30.2	–
B29	172	–
B30	1040	–
B31	248	–
B32	5.72	–
B33	35.1	–
B34	27.4	–
B35	28.5	–
B36	96.8	–
B37	9.96	–
B38	25.5	–

Binder	EC50 hC3 cleavage [nM]	EC50 of hC3 cleavage [nM]
B39	33.1	–
B40	20.9	–
B41	–	56.7
B42	56.7	–
B43	156	–
B44	95.3	–
B45	116	–
B46	35.8	–
B47	155	–
B48	297	–
B49	102	–
B50	139	–
B51	335	–
B52	45	–
B53	50.6	–
B54	61	–
B55	17.9	–
B56	23.6	–
